Consider two substances from paper PMC3777949, “Dimerization Mediates Thermo-Adaptation, Substrate Affinity and Transglycosylation in a Highly Thermostable Maltogenic Amylase of Geobacillus thermoleovorans” (PLoS ONE, 2013).

For assay [1], the target named is maltogenic amylase of Geobacillus thermoleovorans (Gt-Mamy), recombinant wild type (Geobacillus thermoleovorans). Kind of assay: SEC; Sephacryl S-200 high resolution column, 100 mM sodium phosphate pH 7 with 50 mM NaCl, 0.3 ml/min; masses from a plot of molecular weight vs Ve/Vo against standards. Background: Size exclusion chromatography separates by hydrodynamic size, large species first.

The target in assay [2] is Gt-Mamy D109A mutant (Geobacillus thermoleovorans).

A word on the stoichiometry N: it is a count of units in the complex or per binding partner. As for “maltogenic amylase of Geobacillus thermoleovorans (Gt-Mamy), recombinant wild type (enzyme)”, the stoichiometry N in assay [1] is 2. Take Gt-Mamy D109A mutant (enzyme): in assay [2], the Ea required for thermal denaturation amounted to 33.8 kcal/mol; the T1/2 of thermal inactivation at 80, 90 and 100°C worked out at 44.6 h.
